Assay results as given in US6177078A (Medvet Science Pty Limited, priority 1995, dated 2001).

Experiments:
IL-3Rα chain = biological target: T1, IL-3Rα chain (Homo sapiens, UniProt P26951); experiment: Competition for 125I-7G3 binding to F6 cells by IL-3 or GM-CSF; settings: F6 cells expressing IL-3Rα chain alone, preincubated, 1 nM 125I-7G3
T1 construct: expressed in transfected cells
T1 sequence (P26951 19-378): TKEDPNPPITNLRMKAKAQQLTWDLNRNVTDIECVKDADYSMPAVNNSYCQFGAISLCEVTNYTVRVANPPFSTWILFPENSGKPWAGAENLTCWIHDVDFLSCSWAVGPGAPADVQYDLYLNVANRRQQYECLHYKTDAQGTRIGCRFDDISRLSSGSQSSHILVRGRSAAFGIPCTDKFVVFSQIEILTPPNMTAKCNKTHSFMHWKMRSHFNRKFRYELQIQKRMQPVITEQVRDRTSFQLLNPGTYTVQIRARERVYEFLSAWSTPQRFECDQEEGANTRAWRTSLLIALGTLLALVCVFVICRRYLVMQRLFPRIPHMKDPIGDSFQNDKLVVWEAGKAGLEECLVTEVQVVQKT
Protocol: (§1) The binding curve was analysed by Scatchard transformation.^31 In competition binding experiments F6 cells or COS cells co-expressing IL-3R α and β chains were preincubated for 2 hours at 4° C. with a range of concentrations of IL-3 or GM-CSF before adding 1 nM of ^125 I-7G3 for a further 2 hours.

IL-3R α and β chains = biological target: T2, IL-3R α and β chains (Homo sapiens, UniProt P26951); experiment: Competition for 125I-7G3 binding to COS cells expressing IL-3R α and β chains by IL-3 or GM-CSF; settings: COS cells transfected with IL-3Rα and β chain, preincubated, 1 nM 125I-7G3
T2 construct: expressed in transfected cells; host or cells: COS (monkey fibroblast) cells, transient co-transfection
T2 sequence (P26951 19-378): T1 sequence (P26951 19-378)
Protocol: as §1

- inhibition of 125I-7G3 binding to the IL-3R (IL-3Rα chain): not
- inhibition of 125I-7G3 binding to the IL-3R (IL-3R α and β chains): not
Substance: GM-CSF: GM-CSF, a gift from Genetics Institute
